Source: publication PMC4564306

Tests used:
[1] = biological target: LexA-Rab10 Q68L (mouse) (UniProt P61027); experiment: two-hybrid
[2] = biological target: LexA-Rab10 wild-type (mouse) (UniProt P61027); experiment: two-hybrid

| 3-aminotriazole concentration that suppresses growth [1] | 3-aminotriazole concentration that suppresses growth [2] | Molecule |
| --- | --- | --- |
| 1 mM | – | GAD-Exoc6 CT (from UniProt Q8TAG9-1 384-797) (domain or fragment) |
| 50 mM | 1 to 5 mM | GAD-Exoc6b CT (domain or fragment) SDPNLVLDLKNLIVLFADTLQVYGFPVNQLFDMLLEIRDQYSETLLKKWAGIFRNILDSDNYSPIPVTSEEMYKKVVGQFPFQDIELEKQPFPKKFPFSEFVPKVYNQIKEFIYACLKFSEDLHLSSTEVDDMIRKSTNLLLTRTLSNSLQNVIKRKNIGLTELVQIIINTTHLEKSCKYLEEFITNITNVLPETVHTTKLYGTTTFKDARHAAEEEIYTNLNQKIDQFLQLADYDWMTGDLGNKASDYLVDLIAFLRSTFAVFTHLPGKVAQTACMSACKHLATSLMQLLLEAEVRQLTLGALQQFNLDVRECEQFARSGPVPGFQEDTLQLAFIDLRQLLDLFIQWDWSTYLADYGQPNCKYLRVNPVTALTLLEKMKDTSRKNNMFAQFRKNERDKQKLIDTVAKQLRGLI |
